In one data set the target is T1, human agrinC44 y4z8.
T1 chain: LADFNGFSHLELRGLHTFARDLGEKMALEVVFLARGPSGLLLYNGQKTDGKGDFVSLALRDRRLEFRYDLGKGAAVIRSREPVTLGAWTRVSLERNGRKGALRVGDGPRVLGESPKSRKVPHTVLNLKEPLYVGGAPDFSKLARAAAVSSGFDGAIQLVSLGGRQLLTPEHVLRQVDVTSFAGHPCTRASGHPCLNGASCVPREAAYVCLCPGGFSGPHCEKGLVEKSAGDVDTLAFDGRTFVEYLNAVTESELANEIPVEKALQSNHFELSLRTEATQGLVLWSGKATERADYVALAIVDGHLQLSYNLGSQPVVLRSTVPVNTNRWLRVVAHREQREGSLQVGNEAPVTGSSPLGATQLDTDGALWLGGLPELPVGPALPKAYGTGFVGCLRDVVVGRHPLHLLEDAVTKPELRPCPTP

The target in data set [1] is T2, neurotrypsin-resistant human agrin C44 y4z8K/A with N-terminal His8 tag (C44K/A).
T2 chain: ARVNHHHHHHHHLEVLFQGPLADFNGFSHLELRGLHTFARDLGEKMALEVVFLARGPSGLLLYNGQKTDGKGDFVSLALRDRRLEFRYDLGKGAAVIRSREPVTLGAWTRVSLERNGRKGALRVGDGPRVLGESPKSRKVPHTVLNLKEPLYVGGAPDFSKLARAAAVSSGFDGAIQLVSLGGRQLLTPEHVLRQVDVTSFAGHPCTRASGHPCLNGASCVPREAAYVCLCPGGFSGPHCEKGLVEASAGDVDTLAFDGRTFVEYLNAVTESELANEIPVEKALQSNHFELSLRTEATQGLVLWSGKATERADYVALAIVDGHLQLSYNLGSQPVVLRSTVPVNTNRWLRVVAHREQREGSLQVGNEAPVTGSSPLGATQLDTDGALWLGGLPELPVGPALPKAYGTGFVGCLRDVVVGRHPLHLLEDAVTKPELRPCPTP

Data set [2] has as its target T3, neurotrypsin-resistant human agrin C44 y0z8K/A (h).
T3 chain: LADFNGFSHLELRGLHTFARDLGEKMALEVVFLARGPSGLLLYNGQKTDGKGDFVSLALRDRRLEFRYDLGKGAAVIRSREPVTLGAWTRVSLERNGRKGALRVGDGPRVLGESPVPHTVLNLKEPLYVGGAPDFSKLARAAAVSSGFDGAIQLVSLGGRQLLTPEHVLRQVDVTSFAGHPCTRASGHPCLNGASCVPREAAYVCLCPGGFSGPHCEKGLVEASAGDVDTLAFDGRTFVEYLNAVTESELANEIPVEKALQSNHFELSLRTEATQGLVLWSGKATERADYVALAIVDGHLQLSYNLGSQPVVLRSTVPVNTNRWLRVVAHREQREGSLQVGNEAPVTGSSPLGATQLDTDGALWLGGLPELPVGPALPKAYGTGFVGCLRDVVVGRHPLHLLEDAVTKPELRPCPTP

Data set [3] has as its target T4, neurotrypsin-resistant mouse agrin C44 y0z8K/A (m).
T4 chain: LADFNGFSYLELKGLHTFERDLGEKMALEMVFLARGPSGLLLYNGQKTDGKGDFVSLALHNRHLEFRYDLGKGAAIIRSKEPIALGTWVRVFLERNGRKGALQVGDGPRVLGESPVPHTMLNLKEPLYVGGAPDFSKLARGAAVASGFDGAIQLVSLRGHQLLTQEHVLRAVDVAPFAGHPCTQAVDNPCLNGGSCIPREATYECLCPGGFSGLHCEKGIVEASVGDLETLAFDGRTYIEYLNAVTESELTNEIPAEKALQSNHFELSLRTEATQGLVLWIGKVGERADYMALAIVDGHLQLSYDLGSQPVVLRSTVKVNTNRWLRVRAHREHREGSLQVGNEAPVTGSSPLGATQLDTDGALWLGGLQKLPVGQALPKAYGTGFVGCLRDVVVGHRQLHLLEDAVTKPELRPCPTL

The target in data set [4] is T5, neurotrypsin-resistant human agrin C44 y4z0K/A.
T5 chain: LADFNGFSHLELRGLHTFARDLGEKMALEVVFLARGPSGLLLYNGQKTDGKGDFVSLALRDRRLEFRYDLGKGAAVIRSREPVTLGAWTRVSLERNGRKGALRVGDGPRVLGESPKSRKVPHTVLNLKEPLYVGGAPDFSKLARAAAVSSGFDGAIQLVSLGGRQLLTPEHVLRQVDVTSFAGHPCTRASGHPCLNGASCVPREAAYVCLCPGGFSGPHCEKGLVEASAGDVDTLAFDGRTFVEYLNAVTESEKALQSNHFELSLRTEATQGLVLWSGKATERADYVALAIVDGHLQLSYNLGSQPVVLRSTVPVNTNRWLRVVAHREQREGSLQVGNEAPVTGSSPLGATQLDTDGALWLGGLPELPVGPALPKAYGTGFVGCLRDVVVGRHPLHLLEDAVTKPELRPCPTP

The target in data set [5] is T6, neurotrypsin-resistant mouse agrin C44 y4z8K/A (m).
T6 chain: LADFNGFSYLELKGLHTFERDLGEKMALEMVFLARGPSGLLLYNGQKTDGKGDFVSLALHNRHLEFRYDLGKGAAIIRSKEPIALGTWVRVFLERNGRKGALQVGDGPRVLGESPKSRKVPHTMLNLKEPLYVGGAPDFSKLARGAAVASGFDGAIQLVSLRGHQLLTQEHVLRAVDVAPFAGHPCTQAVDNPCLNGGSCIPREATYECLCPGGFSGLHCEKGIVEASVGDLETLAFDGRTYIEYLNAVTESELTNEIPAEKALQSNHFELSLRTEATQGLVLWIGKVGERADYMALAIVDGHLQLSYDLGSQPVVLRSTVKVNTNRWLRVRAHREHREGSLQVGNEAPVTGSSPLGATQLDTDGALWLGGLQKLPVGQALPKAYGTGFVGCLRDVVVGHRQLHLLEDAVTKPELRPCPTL

B1: human neurotrypsin (protein)
chain: FDSVLNDSLHHSHRHSPPAGPHYPYYLPTQQRPPRTRPPPPLPRFPRPPRALPAQRPHALQAGHTPRPHPWGCPAGEPWVSVTDFGAPCLRWAEVPPFLERSPPASWAQLRGQRHNFCRSPDGAGRPWCFYGDARGKVDWGYCDCRHGSVRLRGGKNEFEGTVEVYASGVWGTVCSSHWDDSDASVICHQLQLGGKGIAKQTPFSGLGLIPIYWSNVRCRGDEENILLCEKDIWQGGVCPQKMAAAVTCSFSHGPTFPIIRLAGGSSVHEGRVELYHAGQWGTVCDDQWDDADAEVICRQLGLSGIAKAWHQAYFGEGSGPVMLDEVRCTGNELSIEQCPKSSWGEHNCGHKEDAGVSCTPLTDGVIRLAGGKGSHEGRLEVYYRGQWGTVCDDGWTELNTYVVCRQLGFKYGKQASANHFEESTGPIWLDDVSCSGKETRFLQCSRRQWGRHDCSHREDVSIACYPGGEGHRLSLGFPVRLMDGENKKEGRVEVFINGQWGTICDDGWTDKDAAVICRQLGYKGPARARTMAYFGEGKGPIHVDNVKCTGNERSLADCIKQDIGRHNCRHSEDAGVICDYFGKKASGNSNKESLSSVCGLRLLHRRQKRIIGGKNSLRGGWPWQVSLRLKSSHGDGRLLCGATLLSSCWVLTAAHCFKRYGNSTRSYAVRVGDYHTLVPEEFEEEIGVQQIVIHREYRPDRSDYDIALVRLQGPEEQCARFSSHVLPACLPLWRERPQKTASNCYITGWGDTGRAYSRTLQQAAIPLLPKRFCEERYKGRFTGRMLCAGNLHEHKRVDSCQGDSGGPLMCERPGESWVVYGVTSWGYGCGVKDSPGVYTKVSAFVPWIKSVTKL
For B1, the “proteolytic digestion of the agrin fragment by human neurotrypsin, SDS-PAGE (Sypro ruby); control substrate with intact β-cleavage site, cleavage implied” value with human agrinC44 y4z8 is listed as “The mutation K to A in the β-cleavage site efficiently abolishes a cleavage of the agrin fragment”. The “proteolytic digestion by human neurotrypsin, SDS-PAGE (FIG. 11)” value was “the C44K/A-fragments as shown in the FIGS. 2b and 7-10 are not digested by neurotrypsin” in data set [1]; “the C44K/A-fragments as shown in the FIGS. 2b and 7-10 are not digested by neurotrypsin” in data set [2]; “the C44K/A-fragments as shown in the FIGS. 2b and 7-10 are not digested by neurotrypsin” in data set [3]; “the C44K/A-fragments as shown in the FIGS. 2b and 7-10 are not digested by neurotrypsin” in data set [4]; “the C44K/A-fragments as shown in the FIGS. 2b and 7-10 are not digested by neurotrypsin” in data set [5]. Also, the “proteolytic digestion of the agrin fragment by human neurotrypsin, SDS-PAGE (Sypro ruby)” value in data set [1] is given as “The mutation K to A in the β-cleavage site efficiently abolishes a cleavage of the agrin fragment”.
